Data published in patent US20160102323, “A LAGLIDADG HOMING ENDONUCLEASE CLEAVING THE C-C CHEMOKINE RECEPTOR TYPE-5 (CCR5) GENE AND USES THEREOF” (CELLECTIS, published 2016).

What was measured:
Experiment in all cases: flow; yeast surface display titration; unit as printed (uM)
[1] = target: T1, CCR5_S08_1B6 I-OnuI variant (artificial (I-OnuI derived)); settings: label: Alexa Fluor 647 / biotin in cleavage assay
T1 chain: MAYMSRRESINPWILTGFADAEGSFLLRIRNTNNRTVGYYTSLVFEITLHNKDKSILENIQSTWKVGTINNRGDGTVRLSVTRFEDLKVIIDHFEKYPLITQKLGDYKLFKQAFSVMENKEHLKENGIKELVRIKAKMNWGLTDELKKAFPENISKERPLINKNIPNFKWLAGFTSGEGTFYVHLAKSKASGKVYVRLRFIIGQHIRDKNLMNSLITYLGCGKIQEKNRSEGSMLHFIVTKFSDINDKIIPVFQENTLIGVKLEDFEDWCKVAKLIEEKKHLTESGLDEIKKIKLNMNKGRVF
Method: (§1) The LHEs containing the engineered DNA recognition interfaces for the CCR5_S02 (SEQ ID NO: 3) and CCR5_S08 (SEQ ID NO: 5) targets were tested for affinity, specificity, and toxicity characteristics. Affinity was tested by independently incubating yeast displaying the CCR5_S02_1F5 variant, (SEQ ID NO: 09 encoding SEQ ID NO: 10), and the CCR5_S08_1B6 variant (SEQ ID NO: 11 encoding SEQ ID NO: 12), with DNA substrates containing their target sequences at various concentrations. See FIG. 4 showing the affinity properties of these two variants relative to the wild-type I-OnuI protein. […] Specificity was tested by analyzing the relative ability of each LHE to cleave target sequences containing each of the three alternate DNA base pairs at each position along the substrate. See FIG. 5 illustrating the specificity profile of the CCR5_S02_1F5 and CCR5_S08_1B6 variants. […] Toxicity was analyzed by in vitro transcribing each LHE into mRNA and transfecting primary human T cells by electroporation, followed by flow cytometry analysis of the survival of the cells relative to transfection with a control mRNA encoding a blue fluorescent protein (BFP). See FIG. 6 showing flow cytometry analysis of primary human T cells after treatment with the CCR5_S02_1F5 and CCR5_S08_1B6 variants.

[2] = target: T2, I-OnuI (wild type) (Ophiostoma novo-ulmi); settings: label: fluorescent dye
T2 chain: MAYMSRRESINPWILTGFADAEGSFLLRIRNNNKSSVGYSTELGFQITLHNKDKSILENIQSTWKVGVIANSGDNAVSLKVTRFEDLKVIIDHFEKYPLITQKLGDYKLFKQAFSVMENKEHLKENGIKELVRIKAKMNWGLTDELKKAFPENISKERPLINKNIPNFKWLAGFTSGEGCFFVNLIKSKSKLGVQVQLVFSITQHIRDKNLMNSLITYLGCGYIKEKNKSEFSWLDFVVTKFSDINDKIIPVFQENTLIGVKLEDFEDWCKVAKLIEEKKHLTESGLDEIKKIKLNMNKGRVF
Method: as §1

[3] = target: T3, CCR5_S02_1F5 I-OnuI variant (artificial (I-OnuI derived)); settings: label: Alexa Fluor 647 / biotin in cleavage assay
T3 chain: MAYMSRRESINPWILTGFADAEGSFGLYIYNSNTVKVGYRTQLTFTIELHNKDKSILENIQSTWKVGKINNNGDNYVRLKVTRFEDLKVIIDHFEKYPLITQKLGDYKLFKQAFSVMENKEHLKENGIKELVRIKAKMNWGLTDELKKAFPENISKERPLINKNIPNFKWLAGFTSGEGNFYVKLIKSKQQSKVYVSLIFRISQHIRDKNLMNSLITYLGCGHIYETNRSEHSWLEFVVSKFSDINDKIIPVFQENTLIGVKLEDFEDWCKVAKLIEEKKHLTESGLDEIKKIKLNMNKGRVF
Method: as §1

B1: CCR5_S08 target (dsDNA)
DNA 1: CTTCCAGGAATTCTTTGGCCTG
DNA 2: CAGGCCAAAGAATTCCTGGAAG
- Kd [1]: ~20 µM

B2: I-OnuI native target (dsDNA)
DNA 1: TTTCCACTTATTCAACCTTTTA
DNA 2: TAAAAGGTTGAATAAGTGGAAA
- Kd [2]: ~80 µM

B3: CCR5_S02 target (dsDNA)
DNA 1: ATGAAGAAGATTCCAGAGAAGA
DNA 2: TCTTCTCTGGAATCTTCTTCAT
- Kd [3]: ~35 µM
